Reference: patent publication US6319893A, “Raising blood sugar level in hypoglycemic mammals by administering inhibitors of dipeptidyl peptidase IV” (Probiodrug, priority 1998, dated 2001)

What was measured:
DP IV = DP IV (Homo sapiens, UniProt P27487); experiment: MALDI-TOF mass spectra of glucagon solution incubated with DP IV; assay type: biochemical; settings: 0.14 mmol glucagon solution, 40 mmol TRIS/HCL pH=7.6, 40 nmol DP IV; FIG. 1
serum DP IV = target: T1, serum DP IV (Homo sapiens, UniProt P27487); experiment: MALDI-TOF mass spectra of a glucagon-serum mixture, serum DP IV-catalysed glucagon cleavage; assay type: biochemical; settings: no inhibitor, FIG. 2 A
T1 construct: from tissue; host or cells: serum
T1 sequence (P27487 39-766 limits assumed): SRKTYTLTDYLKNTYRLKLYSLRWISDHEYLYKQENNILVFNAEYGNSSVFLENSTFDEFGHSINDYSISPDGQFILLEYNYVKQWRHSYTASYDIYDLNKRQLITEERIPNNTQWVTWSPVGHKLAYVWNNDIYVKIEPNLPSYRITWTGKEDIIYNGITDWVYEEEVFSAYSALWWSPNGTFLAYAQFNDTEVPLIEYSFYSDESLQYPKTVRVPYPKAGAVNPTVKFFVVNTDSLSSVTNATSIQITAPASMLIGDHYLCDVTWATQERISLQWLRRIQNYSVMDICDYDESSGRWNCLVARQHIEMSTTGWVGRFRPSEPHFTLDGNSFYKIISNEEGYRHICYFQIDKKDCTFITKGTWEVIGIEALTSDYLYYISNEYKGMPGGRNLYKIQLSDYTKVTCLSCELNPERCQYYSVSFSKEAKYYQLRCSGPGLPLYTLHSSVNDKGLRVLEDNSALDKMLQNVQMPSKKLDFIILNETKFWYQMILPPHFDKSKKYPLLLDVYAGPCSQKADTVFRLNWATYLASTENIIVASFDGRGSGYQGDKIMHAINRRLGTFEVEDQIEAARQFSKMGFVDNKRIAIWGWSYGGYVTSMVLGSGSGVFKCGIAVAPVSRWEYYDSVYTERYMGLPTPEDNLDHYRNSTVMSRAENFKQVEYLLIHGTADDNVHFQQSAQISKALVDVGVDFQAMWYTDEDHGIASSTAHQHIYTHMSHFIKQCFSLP
From the text: Inhibition of Serum DP IV-catalysed Glucagon Cleavage by the DP IV Inhibitor Isoleticyl-thiazolidine

Sequence of DP IV (P27487 whole entry): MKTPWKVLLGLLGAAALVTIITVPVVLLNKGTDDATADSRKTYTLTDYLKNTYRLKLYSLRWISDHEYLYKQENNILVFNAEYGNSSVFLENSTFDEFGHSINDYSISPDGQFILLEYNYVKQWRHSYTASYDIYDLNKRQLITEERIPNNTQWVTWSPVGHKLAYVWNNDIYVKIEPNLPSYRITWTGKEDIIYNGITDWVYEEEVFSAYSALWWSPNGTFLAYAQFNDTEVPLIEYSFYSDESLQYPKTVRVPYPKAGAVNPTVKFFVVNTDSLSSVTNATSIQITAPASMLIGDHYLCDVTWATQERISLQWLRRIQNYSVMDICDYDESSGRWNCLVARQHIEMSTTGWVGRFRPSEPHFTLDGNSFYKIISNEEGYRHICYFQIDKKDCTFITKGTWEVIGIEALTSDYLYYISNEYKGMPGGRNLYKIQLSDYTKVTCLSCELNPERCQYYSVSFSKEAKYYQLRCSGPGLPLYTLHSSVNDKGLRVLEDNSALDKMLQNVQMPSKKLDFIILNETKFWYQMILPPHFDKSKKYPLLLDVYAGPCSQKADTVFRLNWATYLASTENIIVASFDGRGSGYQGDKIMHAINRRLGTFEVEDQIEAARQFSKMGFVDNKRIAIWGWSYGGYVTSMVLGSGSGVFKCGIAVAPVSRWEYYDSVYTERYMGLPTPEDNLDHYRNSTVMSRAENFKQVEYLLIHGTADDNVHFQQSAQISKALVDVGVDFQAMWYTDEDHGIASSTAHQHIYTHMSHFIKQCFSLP

glucagon
cleavage of glucagon by DP IV (MALDI-TOF) (DP IV): removal of the dipeptides His-Ser and Gln-Gly occurs sequentially depending upon the incubation time | hydrolysis of glucagon by serum DP IV (MALDI-TOF) (serum DP IV): serum-DP IV hydrolyses glucagoni
